In patent US20240342244A1, “Isthmin Protein Therapeutics for the Treatment of Non-Alcoholic Fatty Liver Disease” (The Board of Trustees of the Leland Stanford Junior …, priority 2021, published 2024):

Assays:
[1] = system: IGF-I-Receptor β Tyr1135/1136 or Insulin receptor Tyr1150/1151; test: Western blot of phosphorylated insulin and IGF receptors in 3T3-F442A cells; type: cell-based; settings: 100 nM; 2 minutes
Procedure: (§1) Western blots and molecular analyses. For western blotting, homogenized tissues or whole-cell lysates, samples were lysed in RIPA buffer containing protease inhibitor cocktail (Roche) and phosphatase inhibitor cocktail (Roche). Cell lysates were centrifuged at 14,000×g for 15 min and supernatants were prepared in 4×LDS Sample Buffer (Invitrogen) and separated by SDS-PAGE and transferred to Immobilon 0.45 μm membranes (Millipore). For Western blotting of plasma samples, 1 μl of plasma was prepared in 2× sample buffer (Invitrogen) with reducing agent, boiled, and analyzed using Western blot against indicated antibody. Protein kinase array (R&D systems ARY003B) was performed according to the manufacturers' description. All antibodies used in this paper are described in STAR methods.

[2] = system: pAKT^S473; test: pAKT S473 western blot in C2C12 skeletal muscle cells; type: cell-based; settings: 100 nM, 5 min
Procedure: as §1

[3] = system: ISM1-KO mice; test: In vivo 2-deoxy-3H-glucose uptake in ISM1-KO mice treated with ISM1 protein; parameters: species or system mouse; settings: 5 mg/kg ISM1 protein for two days; male ISM1-KO mice
Procedure: In vivo glucose uptake. Mice were fasted for 1 h and injected I.P. with 3H-2-deoxyglucose (3H-2-DOG) at 100 uCi/kg with or without 0.75 U/kg insulin in a total volume of 120 ul per mouse. After 30 min, mice were euthanized. Blood was collected by cardiac puncture and subsequently centrifuged to collect serum. Wet tissue weights were recorded then homogenized in 1% SDS for liquid scintillation counting. Data are expressed as CPM/mg wet weight (fold change over control).

B1: ISM1: recombinant mouse ISM1 protein with a C-terminal myc-his tag generated in mammalian HEK 293 Expi cells (protein, UniProt A2ATD1 30-454, looked up)
Isthmin-1: SDRQDAAAGNNNLNLESDSTSETSFPLSKEAPEEHQVVHQPFPRQRFPPETGHPSLQRDGPRSFLLDLPNFPDLSKADINGQNPNIQVTIEVVDGPDSEAEKDQHPENKPSWSLPAPDWRAWWQRSLSLARTNSGDQDDKYDSTSDDSNFLSVPRGWDRPAPGHRTFETKEQPEYDSTDGEGDWSLWSVCSVTCGNGNQKRTRSCGYACIATESRTCDRPNCPGIEDTFRTAATEVSLLAGSEEFNATKLFEVDMDSCERWMSCKSEFLKKYMHKVINDLPSCPCSYPTEVAYSTADIFDRIKRKDFRWKDASGPKEKLEIYKPTARYCIRSMLSLESTTLAAQHCCYGDNMQLITRGKGAGTPNLISTEFSAELHYKVDVLPWIICKGDWSRYNEARPPNNGQKCTESPSDEDYIKQFQEAREY
modifications: C-terminal myc-His tag
notes: recombinant mouse ISM1 protein with a C-terminal myc-his tag generated in mammalian HEK 293 Expi cells
- IGF-R/IR phosphorylation [1]: no phosphorylation
- pAKT^S473 induction [2]: induced pAKT^S473
- glucose uptake in BAT [3]: increase glucose uptake
- glucose uptake in iWAT [3]: trending increase
- glucose uptake in liver [3]: no hepatic glucose uptake induction
- glucose uptake in skeletal muscle [3]: increase glucose uptake
